The results in this text go back to IntAct's records for PubMed 17159996.

B1: Tyrosine-protein phosphatase non-receptor type 1 (Homo sapiens), P18031 (parent)
chain: MEMEKEFEQIDKSGSWAAIYQDIRHEASDFPCRVAKLPKNKNRNRYRDVSPFDHSRIKLHQEDNDYINASLIKMEEAQRSYILTQGPLPNTCGHFWEMVWEQKSRGVVMLNRVMEKGSLKCAQYWPQKEEKEMIFEDTNLKLTLISEDIKSYYTVRQLELENLTTQETREILHFHYTTWPDFGVPESPASFLNFLFKVRESGSLSPEHGPVVVHCSAGIGRSGTFCLADTCLLLMDKRKDPSSVDIKKVLLEMRKFRMGLIQTADQLRFSYLAVIEGAKFIMGDSSVQDQWKELSHEDLEPPPEHIPPPPRPPKRILEPHNGKCREFFPNHQWVKEETQEDKDCPIKEEKGSPLNAAPYGIESMSQDTEVRSRVVGGSLRGAQAASPAKGEPSLPEKDEDHALSYWKPFLVNMCVATVLTAGAYLCYRFLFNSNT

The variants in the test derive from B1. The conditions noted are these: with insr_human INSR.
For MEMEKEFEQIDKSGSWAAIYQDIRHEASDFPCRVAKLPKNKNRNRYRDVSPFDHSRIKLHQEDNDYINASLIRMEEAQRSYILTQGPLPNTCGHFWEMVWEQKSRGVVMLNRVMEKGSLKCAQYWPQKEEKEMIFEDTNLKLTLISEDIKSYYTVRQLELENLTTQETREILHFHYTTWPDFGVPESPASFLNFLFKVRESGSLSPEHGPVVVHCSAGIGRSGTFCLADTCLLLMDKRKDPSSVDIKKVLLEMRKFRMGLIQTADQLRFSYLAVIEGAKFIMGDSSVQDQWKELSHEDLEPPPEHIPPPPRPPKRILEPHNGKCREFFPNHQWVREETQEDKDCPIREEKGSPLNAAPYGIESMSQDTEVRSRVVGGSLRGAQAASPARGEPSLPEKDEDHALSYWKPFLVNMCVATVLTAGAYLCYRFLFNSNT [K73R;K335R;K347R;K389R], the “effect of a mutation on the interaction” value is given as “decreasing interaction”.
